Patent US7265202

Columns and labels:
Assay in all cases: cell-based or functional assay
[1] = target: STAT3-STAT1 heterodimer (human) (UniProt P40763)
[2] = target: STAT3-STAT3 homodimer (human) (UniProt P40763)
[3] = target: STAT3 (from a transfected expression vector)
[4] = target: STAT1 (from a transfected expression vector)
[5] = target: STAT1 in interferon-treated human cells (human) (UniProt P42224)
Chain of STAT1 in interferon-treated human cells (human) (P42224 2-750 limits assumed): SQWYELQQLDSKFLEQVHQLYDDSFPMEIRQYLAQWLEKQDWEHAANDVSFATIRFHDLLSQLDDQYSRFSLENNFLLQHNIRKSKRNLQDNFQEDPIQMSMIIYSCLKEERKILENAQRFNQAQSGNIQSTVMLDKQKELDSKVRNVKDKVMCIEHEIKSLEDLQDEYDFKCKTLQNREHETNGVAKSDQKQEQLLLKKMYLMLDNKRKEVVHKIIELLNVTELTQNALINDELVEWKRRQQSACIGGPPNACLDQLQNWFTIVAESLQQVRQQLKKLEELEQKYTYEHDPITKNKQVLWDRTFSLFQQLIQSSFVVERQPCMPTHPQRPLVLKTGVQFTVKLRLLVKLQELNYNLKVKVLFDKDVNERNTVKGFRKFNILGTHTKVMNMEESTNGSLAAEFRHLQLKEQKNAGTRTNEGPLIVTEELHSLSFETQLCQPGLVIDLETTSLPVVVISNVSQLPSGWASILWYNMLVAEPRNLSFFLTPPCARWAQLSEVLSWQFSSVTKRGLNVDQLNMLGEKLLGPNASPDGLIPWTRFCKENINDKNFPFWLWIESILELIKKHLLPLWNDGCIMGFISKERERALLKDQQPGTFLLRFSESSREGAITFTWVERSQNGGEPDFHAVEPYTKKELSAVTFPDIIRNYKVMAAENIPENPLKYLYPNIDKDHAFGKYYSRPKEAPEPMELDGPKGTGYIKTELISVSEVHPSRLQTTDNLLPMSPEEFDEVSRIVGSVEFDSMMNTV

Chain of STAT1 (from a transfected expression vector) (P42224 2-750): as the sequence (P42224 2-750 limits assumed) above
Chain of STAT3-STAT3 homodimer (human) (P40763 2-770 limits assumed): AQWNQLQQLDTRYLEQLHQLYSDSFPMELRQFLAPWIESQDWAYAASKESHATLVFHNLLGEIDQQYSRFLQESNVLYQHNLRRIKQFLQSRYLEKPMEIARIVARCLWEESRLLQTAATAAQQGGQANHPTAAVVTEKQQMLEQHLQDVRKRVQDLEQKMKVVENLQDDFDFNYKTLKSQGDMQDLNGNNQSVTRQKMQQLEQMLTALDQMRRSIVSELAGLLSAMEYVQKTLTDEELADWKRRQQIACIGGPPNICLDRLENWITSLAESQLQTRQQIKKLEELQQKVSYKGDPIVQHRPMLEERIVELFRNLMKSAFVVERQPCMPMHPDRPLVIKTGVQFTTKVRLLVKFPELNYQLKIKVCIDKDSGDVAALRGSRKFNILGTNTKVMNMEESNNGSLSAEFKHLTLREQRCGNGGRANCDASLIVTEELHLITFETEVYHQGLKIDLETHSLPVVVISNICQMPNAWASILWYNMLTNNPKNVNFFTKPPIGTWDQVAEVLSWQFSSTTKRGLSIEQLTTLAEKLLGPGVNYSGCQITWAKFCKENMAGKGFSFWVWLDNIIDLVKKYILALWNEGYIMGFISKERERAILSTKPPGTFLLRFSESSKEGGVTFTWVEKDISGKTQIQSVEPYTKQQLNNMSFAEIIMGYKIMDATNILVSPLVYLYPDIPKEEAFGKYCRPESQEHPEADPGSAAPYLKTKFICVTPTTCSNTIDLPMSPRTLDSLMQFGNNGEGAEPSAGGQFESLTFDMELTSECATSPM
Chain of STAT3-STAT1 heterodimer (human) (P40763 2-770 limits assumed, chain 1 of 2): as the sequence (P40763 2-770 limits assumed) above
Chain of STAT3-STAT1 heterodimer (human) (P42224 2-750 limits assumed, chain 2 of 2, further chain): as the sequence (P42224 2-750 limits assumed) above

B1: recombinant fusion protein of GST with PIAS3 (protein, not shown: a dimerising Fc or GST)
chain: MVMSFRVSELQVLLGFAGRNKSGRKHELLAKALHLLKSSCAPSVQMKIKELYRRRFPRKTLGPSDLSLLSLPPGTSPPVHPDVTMKPLPFYEVYGELIRPTTLASTSSQRFEEAHFTFALTPQQLQQILTSREVLPGAKCDYTIQVQLRFCLCETSCPQEDYFPPNLFVKVNGKLCPLPGYLPPTKNGAEPRGPAVRSTSHPWLDSQPLSPTPSLLIGHLSLDGITPCPCLVRQLTAGTLLQKLRAKGIRNPDHSRALIKEKLTADPDSEVATTSLPGVTHVPARKMRLTVPCRALTCAHLQSFDAALYLQMNEKKPTWTCPVCDKKAPYESLIIDGLFMEILNSCSDDDEIQFMEDGSWCPMKPKKEASEVCPPPGYGLDGLQYSAVQEGIQPESKKRVEVIDLTIESSSDEEDLPPTKKHCSPTSAAIPALPGSKGALTSGHQPSSVLRSPAMGTLGSDFLSSLPVHEYPPAFPLGADIQGLDLFSFLQTESQQYGPSVIISLDEQDTLGHFFQYRGTPSHFLGPLAPTLGSCHGSSTPAPPPGRVSSIVAPGSSLREGHGGPLPSGPSLTGCRSDVISLD
B1 showed a DNA-binding activity in mobility gel shift assay, IL6-treated HepG2 nuclear extracts [1] of 100 ng and a DNA-binding activity in mobility gel shift assay, IL6-treated HepG2 nuclear extracts [2] of 100 ng.

B2: FLAG-tagged PIAS3 (protein, not shown: small tags and cut ends)
chain: B1 chain
With B2 the (4X)IRF-1 luciferase reporter in human 293 cells, IFN-α stimulation [3] was 1 µg and the (4X)IRF-1 luciferase reporter in human 293 cells, IFN-α stimulation [4] was 1 µg.

B3: recombinant fusion protein of glutathione-S-transferase (GST) with PIAS1 (protein, not shown: a dimerising Fc or GST)
chain: MADSAELKQMVMSLRVSELQVLLGYAGRNKHGRKHELLTKALHLLKAGCSPAVQMKIKELYRRRFPQKIMTPADLSIPNVHSSPMPPTLSPSTIPQLTYDGHPASSPLLPVSLLGPKHELELPHLTSALHPVHPDIKLQKLPFYDLLDELIKPTSLASDNSQRFRETCFAFALTPQQVQQISSSMDISGTKCDFTVQVQLRFCLSETSCPQEDHFPPNLCVKVNTKPCSLPGYLPPTKNGVEPKRPSRPINITSLVRLSTTVPNTIVVSWTAEIGRNYSMAVYLVKQLSSTVLLQRLRAKGIRNPDHSRALIKEKLTADSDSEIATTSLRVSLLCPLGKMRLTIPCRALTCSHLQCFDATLYIQMNEKKPTWVCPVCDKKAPYEHLIIDGLFMEILKYCTDCDEIQFKEDGSWAPMRSKKVQEVTASYNGVDGCLSSTLEHQVASHNQSSNKNKKVEVIDLTIDSSSDEEEEEPPAKRTCPSLSPTSPLSNKGILSLPHQASPVSRTPSLPAVDTSYINTSLIQDYRHPFHMTPMPYDLQGLDFFPFLSGDNQHYNTSLLAAAAAAVSDDQDLLHSSRFFPYTSSQMFLDQLSAGGSTSLPATNGSSSGSNSSLVSSNSLRESHGHGVASRSSADTASIFGIIPDIISLD
For B3, the DNA binding activity in gel retardation assay, nuclear extracts of IFN-treated Daudi B cells [5] was 45 ng.
